Results taken from IntAct's records for PubMed 19359471.

B1: Anterior gradient protein 2 homolog (Homo sapiens), O95994 (parent)
chain: MEKIPVSAFLLLVALSYTLARDTTVKPGAKKDTKDSRPKLPQTLSRGWGDQLIWTQTYEEALYKSKTSNKPLMIIHHLDECPHSQALKKVFAENKEIQKLAEQFVLLNLVYETTDKHLSPDGQYVPRIMFVDPSLTVRADITGRYSNRLYAYEPADTALLLDNMKKALKLLKTEL

Variants of: B1
Conditions: with muc2_human MUC2, Q02817

Row | Variant | effect of a mutation on the interaction
1 | C81S | disrupting interaction
